Test results as given in patent publication US8986954B2, “DNA encoding function modifying Nav1.7 antibodies” (UCB Pharma S.A., priority 2009, dated 2015).
Residue numbers refer to the chain shown, from its start.

B1: CA167_00983: rabbit anti-Nav1.7 monoclonal antibody, B11-specific; VH SEQ ID NO:148, VL SEQ ID NO:147 (antibody, V domains shown)
VH: QSVEESGGRLVTPGTPLTLTCTVSGFSLSNYAMSWVRQAPGKGLEWIGIIGKSGSTAYASWAKGRFTISRTSTTVDLEITSPTTEDTATYFCVRFVLLWGPGTLVTVS
VL: AQVLTQTASPVSAAVGGTVTINCQSSQSVYKNNDLAWYQQKPGQPPKLLIYYASTLASGVSSRFKGSGSGTEFTLTISDAQCDDAATYYCLGSYDCSSADCNAFGGGTKVVVK
modifications: derived from rabbit
B2: CA167_01080: rabbit anti-Nav1.7 monoclonal antibody, B11-specific; VH SEQ ID NO:176, VL SEQ ID NO:175 (antibody, V domains shown)
VH: QSLEESGGRLVTPETPLTLTCTASGIDLSKWPMTWVRQAPGKGLEWIGIIGRSGSTNYASWAKGRFTISKTSTTVDLKMTSPTTEDTATYFCARGGSYYDLWGQGTLVTVS
VL: B1 VL with G17N, N22T, Y30W, A36S, P42L, G66A, E72Q, A80V, A86G, L91V
modifications: derived from rabbit
B3: CA167_00932: rabbit anti-Nav1.7 monoclonal antibody, A32-specific; VH SEQ ID NO:140, VL SEQ ID NO:139 (antibody, V domains shown)
VH: QSLEESGGRLVTPGTPLTLTCTVSGFSLSRYWMSWVRQAPGKGLEWIGNIGGGSGSTLYAPWAKGRSTISKTSTTVDLKITSPTTEDTATYFCGRYVKNGGGYRLDLWGPGTLVTVS
VL: AAVLTQTPSSVSAAVGGTVTIKCQSSQSVYNNNEFSWYQQKPGQPPKLLIYDASKLASGVPSRFSGSGSGTQFTLTISGVQCDDVATYYCLGGYNDDTNRWAFGGGTEVVVE
modifications: derived from rabbit

Legend:
[1] = at best, in about 40% of patients (Dworkin, 2002); cited from earlier work
human Nav1.7 channel = target: T1, human Nav1.7 channel (Homo sapiens, UniProt Q15858); assay: PatchXpress h Nav1.7 assay (automated Patch Clamp, HEK cells); assay type: cell-based; details: for dose dependence of inhibition of human Nav1.7 currents: recombinant human Nav1.7 in HEK cells, repeated voltage step protocol, end point
T1 construct: host or cells: HEK293
T1 sequence (Q15858 whole entry): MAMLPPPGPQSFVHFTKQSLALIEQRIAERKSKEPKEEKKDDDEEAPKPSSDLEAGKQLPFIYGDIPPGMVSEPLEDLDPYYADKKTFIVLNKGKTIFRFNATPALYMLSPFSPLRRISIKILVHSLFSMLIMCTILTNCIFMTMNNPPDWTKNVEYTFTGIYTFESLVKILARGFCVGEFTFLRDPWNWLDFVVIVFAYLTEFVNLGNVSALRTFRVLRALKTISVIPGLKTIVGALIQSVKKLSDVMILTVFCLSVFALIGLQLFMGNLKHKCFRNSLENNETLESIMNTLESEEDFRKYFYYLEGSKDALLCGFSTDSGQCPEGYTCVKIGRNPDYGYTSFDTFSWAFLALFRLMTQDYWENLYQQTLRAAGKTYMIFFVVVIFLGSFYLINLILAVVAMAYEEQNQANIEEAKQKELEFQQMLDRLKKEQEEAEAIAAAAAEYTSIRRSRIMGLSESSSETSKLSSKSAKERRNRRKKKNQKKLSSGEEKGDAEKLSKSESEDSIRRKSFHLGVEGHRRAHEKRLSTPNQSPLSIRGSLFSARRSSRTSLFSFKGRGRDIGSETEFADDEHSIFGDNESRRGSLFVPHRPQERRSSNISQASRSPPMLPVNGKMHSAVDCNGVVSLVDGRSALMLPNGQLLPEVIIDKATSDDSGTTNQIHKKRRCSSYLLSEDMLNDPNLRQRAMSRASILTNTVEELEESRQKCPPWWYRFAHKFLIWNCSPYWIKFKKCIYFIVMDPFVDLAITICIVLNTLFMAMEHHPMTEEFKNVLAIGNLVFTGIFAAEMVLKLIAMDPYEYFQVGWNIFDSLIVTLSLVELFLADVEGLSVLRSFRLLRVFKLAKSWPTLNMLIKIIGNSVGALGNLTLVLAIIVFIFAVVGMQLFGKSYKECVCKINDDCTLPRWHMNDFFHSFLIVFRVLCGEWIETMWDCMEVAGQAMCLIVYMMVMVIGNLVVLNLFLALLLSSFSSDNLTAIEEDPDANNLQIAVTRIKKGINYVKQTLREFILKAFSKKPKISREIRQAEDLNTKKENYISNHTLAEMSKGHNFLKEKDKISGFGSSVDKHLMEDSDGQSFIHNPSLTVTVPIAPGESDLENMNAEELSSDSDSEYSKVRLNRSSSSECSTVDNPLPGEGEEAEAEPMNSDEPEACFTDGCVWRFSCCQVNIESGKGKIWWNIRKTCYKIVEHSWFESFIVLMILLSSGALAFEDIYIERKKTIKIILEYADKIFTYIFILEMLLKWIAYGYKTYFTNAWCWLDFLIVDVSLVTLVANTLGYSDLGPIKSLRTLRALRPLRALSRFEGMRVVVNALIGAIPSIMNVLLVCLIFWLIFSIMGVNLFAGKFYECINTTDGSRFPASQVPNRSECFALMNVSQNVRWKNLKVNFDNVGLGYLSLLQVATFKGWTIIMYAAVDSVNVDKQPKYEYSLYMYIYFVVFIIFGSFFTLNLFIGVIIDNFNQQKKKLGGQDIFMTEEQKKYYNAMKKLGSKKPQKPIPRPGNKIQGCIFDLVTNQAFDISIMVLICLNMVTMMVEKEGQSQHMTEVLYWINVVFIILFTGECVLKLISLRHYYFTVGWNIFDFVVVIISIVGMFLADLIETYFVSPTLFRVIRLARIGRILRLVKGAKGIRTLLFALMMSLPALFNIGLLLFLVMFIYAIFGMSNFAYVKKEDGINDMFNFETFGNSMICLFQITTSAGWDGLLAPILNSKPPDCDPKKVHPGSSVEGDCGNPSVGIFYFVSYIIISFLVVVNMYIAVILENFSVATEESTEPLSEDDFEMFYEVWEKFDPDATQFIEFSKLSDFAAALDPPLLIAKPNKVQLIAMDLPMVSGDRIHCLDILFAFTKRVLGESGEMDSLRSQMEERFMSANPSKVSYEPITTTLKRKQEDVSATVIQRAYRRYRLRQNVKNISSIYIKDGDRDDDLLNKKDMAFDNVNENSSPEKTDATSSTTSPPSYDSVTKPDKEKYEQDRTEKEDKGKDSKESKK
Experimental: Extracellular solution contained (in mM): 130 NaCl, 4 KCl, 1.5 CaCl2, 1 MgCl2, 30 glucose, 10 HEPES (pH 7.4 with Tris-Base, and 300 to 305 mOsmolar). Intracellular solution contained (in mM): 5 NaCl, 115 CsF, 20 CsCl, […], 10 EGTA free acid (pH 7.2 with CsOH, and 290 to 295 mOsmolar) and was either made fresh or kept frozen. Extracellular and intracellular solutions were filtered prior to use. Antibodies were directly diluted in extracellular solution and were freshly (no more than 15 min) prepared before transfer to a 96-well polypropylene compound plate (Sarsted, #83.1835.500). For the experiments using selective peptide, antibodies and peptides, at equal concentrations, were preincubated at least 30-min at 4° C. prior Patch Clamp experiments.
HEK293 cells stably expressing the human Nav1.7 channel (type IX voltage-gated sodium channel alpha subunit) were purchased from Upstate (Upstate, Millipore, cat.#CYL3011). Cells were cultured in T-75 (BD BioCoat™ Collagen I Cellware, Becton Dickinson Labware, Bedford, Mass., #356485) flasks coated with collagen type I using standard culture medium DMEM-F12 with-Glutamine (Invitrogen, #11320) containing 10% FBS (Lonza, #DE14-802F), 1% penicillin+streptomycin (Lonza, DE17-603E), 1% non essential amino acids (Lonza, BE13-114E) and 400 μg/ml G418 (GIBCO, #10131-027). Cells were plated at a density of 15,000 cells/cm2 or 8,000 cells/cm2 density for 2 or 3 days respectively before being used on PatchXpress® 7000A (Axon instrument, new part of MDS Analytical Technologies). Cells confluence never exceeded 90%. The day of the experiment, cells were harvested using Accumax (Sigma, A7089). Briefly, cells were washed twice in PBS (Lonza, #BE12-516F) without calcium and magnesium, and a 1:4 dilution of Accumax solution was added and incubated for 1.5 to 2-min at 37° C. DMEM-F12 with 15 mMHEPES and L-glutamine (Lonza, #BE12-719F) containing 10% FBS (recovery media) was added to quench Accumax digestion. The cells were subsequently centrifuged at 1,000 rpm for 5-min in 50 ml falcon tube and pellets are resuspended in 10 ml of recovery media. Cells are counted (CoulterZ2) and suspended at ˜0.1 million cells/ml and transferred to a 15 ml screw-cap tube for minimum 90 minutes at room temperature. Cells were then centrifuged for 60-s at 1,000 rpm. The pellet was gently resuspended in 1,000 μl extracellular solution and centrifuged a second time for 30-s at 1,000 rpm. Pellet was resuspended in 150 μL extracellular solution and immediately tested on the PatchXpress®. […]
After 10-s, the pressure was switched from +4 to −30 mmHg to attract suspended cells to each of the 16 holes (electrodes). […] The cell was allowed to dialyze for 5 min, during which the access resistance was monitored. […]

rat Nav1.7 channels = target: T2, rat Nav1.7 channels (Rattus norvegicus, UniProt O08562); assay: Automated Patch Clamp analysis of recombinant rat Nav1.7 channels expressed in HEK cells; assay type: cell-based; details: recombinant rat Nav1.7 in HEK cells
T2 construct: expressed in transfected cells; host or cells: HEK cells
T2 sequence (O08562 whole entry): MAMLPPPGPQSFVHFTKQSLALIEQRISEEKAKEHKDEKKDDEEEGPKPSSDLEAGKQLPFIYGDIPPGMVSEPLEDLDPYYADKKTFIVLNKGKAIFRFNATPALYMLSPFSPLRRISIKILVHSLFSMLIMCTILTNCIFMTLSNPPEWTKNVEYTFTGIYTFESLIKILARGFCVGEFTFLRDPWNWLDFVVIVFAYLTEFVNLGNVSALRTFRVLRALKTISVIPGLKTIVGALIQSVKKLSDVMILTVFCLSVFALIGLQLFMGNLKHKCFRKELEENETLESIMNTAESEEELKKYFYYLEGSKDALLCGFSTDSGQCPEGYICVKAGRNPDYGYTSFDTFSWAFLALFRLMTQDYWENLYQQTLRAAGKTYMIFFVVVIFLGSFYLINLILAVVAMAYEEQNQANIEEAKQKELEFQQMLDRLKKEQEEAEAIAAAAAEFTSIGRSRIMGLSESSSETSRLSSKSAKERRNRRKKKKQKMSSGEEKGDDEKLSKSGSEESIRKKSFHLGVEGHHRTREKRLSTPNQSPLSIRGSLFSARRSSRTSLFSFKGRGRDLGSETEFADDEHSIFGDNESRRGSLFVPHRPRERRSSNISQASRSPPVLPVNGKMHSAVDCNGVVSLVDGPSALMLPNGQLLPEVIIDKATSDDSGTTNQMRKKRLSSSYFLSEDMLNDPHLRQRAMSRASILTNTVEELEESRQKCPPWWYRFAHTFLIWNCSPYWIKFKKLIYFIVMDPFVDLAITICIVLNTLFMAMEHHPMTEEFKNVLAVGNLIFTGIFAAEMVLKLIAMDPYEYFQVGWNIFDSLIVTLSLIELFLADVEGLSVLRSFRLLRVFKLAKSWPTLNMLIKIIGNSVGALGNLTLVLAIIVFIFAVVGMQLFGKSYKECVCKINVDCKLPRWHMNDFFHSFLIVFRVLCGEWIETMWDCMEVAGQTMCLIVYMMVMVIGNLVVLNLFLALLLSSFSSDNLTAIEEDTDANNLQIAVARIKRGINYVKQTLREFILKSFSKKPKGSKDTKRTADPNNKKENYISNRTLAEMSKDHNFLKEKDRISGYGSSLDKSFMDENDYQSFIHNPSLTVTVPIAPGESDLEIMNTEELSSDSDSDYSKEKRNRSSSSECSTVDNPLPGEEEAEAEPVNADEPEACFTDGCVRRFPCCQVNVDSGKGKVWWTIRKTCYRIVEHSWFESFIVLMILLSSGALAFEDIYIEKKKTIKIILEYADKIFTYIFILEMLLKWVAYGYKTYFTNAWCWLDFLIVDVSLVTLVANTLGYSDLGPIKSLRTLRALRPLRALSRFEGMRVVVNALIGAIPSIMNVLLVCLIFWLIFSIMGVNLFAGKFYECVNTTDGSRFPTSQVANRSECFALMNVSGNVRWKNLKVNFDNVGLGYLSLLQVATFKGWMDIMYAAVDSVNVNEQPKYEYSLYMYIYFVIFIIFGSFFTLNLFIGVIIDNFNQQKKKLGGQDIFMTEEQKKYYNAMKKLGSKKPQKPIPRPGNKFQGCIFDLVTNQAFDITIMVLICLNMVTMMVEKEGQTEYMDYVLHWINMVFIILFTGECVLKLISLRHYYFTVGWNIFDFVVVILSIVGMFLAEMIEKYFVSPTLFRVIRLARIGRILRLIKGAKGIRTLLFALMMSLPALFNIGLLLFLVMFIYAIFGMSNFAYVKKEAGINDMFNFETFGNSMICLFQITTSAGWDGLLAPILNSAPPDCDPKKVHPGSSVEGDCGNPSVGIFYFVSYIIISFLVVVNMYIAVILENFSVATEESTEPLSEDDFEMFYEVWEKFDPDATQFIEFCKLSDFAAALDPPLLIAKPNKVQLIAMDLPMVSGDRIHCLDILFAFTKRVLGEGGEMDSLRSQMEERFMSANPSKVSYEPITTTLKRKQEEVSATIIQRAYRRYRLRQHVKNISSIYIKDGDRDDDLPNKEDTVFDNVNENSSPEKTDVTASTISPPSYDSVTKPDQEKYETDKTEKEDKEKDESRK
Text: Automated Patch Clamp analysis of recombinant rat Nav1.7 channels expressed in HEK cells. […] Data points represent the normalized peak current amplitudes after application of a repeated voltage step protocol (end point) in the presence of antibody.

[2] = tested on: cultured rat dorsal root ganglion (DRG) neurons; assay: Dorsal root ganglion in vitro current clamp electrophysiology; assay type: cell-based; details: 25 μg/ml; for number of evoked action potentials: compared with vehicle or control antibody, administration at time=2 minutes
Experimental: Dorsal Root Ganglia were isolated from 1-2 wild-type rat pups, aged between postnatal day 1 and 3. Ganglia were washed in PBS after dissection and immediately placed into a DMEM (Lonza, #BE12-604F) solution containing 2 mg/ml collagenase (Sigma-Aldrich, #C2674) and incubated at 37° C. for approximately 45 minutes for enzymatic digestion. Collagenase solution was removed and replaced with DMEM supplemented with 10% Fetal Bovine Serum (Lonza, #DE14802F), 0.5 mM L-Glutamine (Lonza, #BE17-605E), 1% Penicillin/Streptomycin (Lonza, #BE17-603E) and 20 ng/ml nerve growth factor (NGF, Invitrogen). Ganglia were then mechanically triturated, centrifuged at 1000 g for 5 minutes, and resuspended in the same culture medium. Dissociated cells were counted and diluted to a suspension of 100,000-120,000 cells/ml on glass coverslips precoated with 50 μg/ml poly-D-lysine (Sigma) and 30 μg/ml laminin (Invitrogen) and incubated at 37° C., 5% CO2 until ready for use.
Dissociated DRG were taken for use no more than two days in vitro (DIV) following preparation. Cells were visualized on an Olympus BX50WI upright microscope with an Ikegami ICD-42B CCD camera. […] All recordings were acquired using pClamp 10 software (Molecular Devices) and subsequently analyzed in Clampfit 10 (Molecular Devices). […] The liquid junction potential was calculated to be 14.2 mV, all reported voltages have been corrected to compensate.
After formation of a tight seal (>1 GΩ) by release of positive pressure and manual suction in voltage clamp mode, capacitative currents were compensated and the command voltage was set to −70 mV. […] Whole cell parameters were recorded after dialysis. […] The amplifier was switched to current clamp mode and the resting membrane potential was recorded. […]
Cells were subsequently treated either with control or antibody solutions by fast bath perfusion directly on to the recorded cell for 90 seconds to sufficiently fill the recording chamber, at which point both perfusion and aspiration were halted. […]

Nav 1.7 peptide B11.7 = target: T3, Nav 1.7 peptide B11.7 (Homo sapiens, UniProt Q15858); assay: Peptide binding ELISA, cyclic Nav 1.7 peptide B11.7; details: biotinylated cyclic peptide on streptavidin plate
T3 construct: host or cells: synthetic peptide captured on streptavidin plates
Experimental: (§1) Nunc 96 well plates were coated overnight at 4° C. in 5 ug/ml Streptavidin (Jackson 016-000-114) 100 ul/well in carbonate coating buffer. Plates were washed four times in PBS/tween and 200 ul/well of block (1% BSA in PBS) was added for 1 hour at RT. Plates were washed four times in PBS/tween and 100 ul/well of biotinylated peptide at 5 ug/ml was added for 1 hour at RT. Plates were washed four times in PBS/tween and 100 ul/well of antibody added (starting at 10 ug/ml diluting in block in half logs down the plate) for 1 hour at RT. Plates were washed four times in PBS/tween and […] goat anti rabbit Fc HRP (Jackson 111-036-046) added for 1 hour at RT. Plates were washed four times in PBS/tween and 100 ul/well TMB (3,3′,5,5′ Tetramethylbenzidine) solution added. 50 ul/well of NaF was added to stop reaction and absorbance read at 630 nm.

[3] = target: T4, Human domain B loop E1 peptide B11 (Nav 1.7) (Homo sapiens, UniProt Q15858); assay: Peptide binding ELISA, human B11 peptide
T4 construct: host or cells: synthetic peptide
Experimental: as §1

[4] = target: T5, Mouse domain B loop E1 peptide B11 (Nav 1.7) (Mus musculus, UniProt Q62205); assay: Peptide binding ELISA, mouse B11 peptide
T5 construct: host or cells: synthetic peptide
Experimental: as §1

Molecule	pain reduction [1]	human Nav1.7 current when stimulated only at the end of the protocol (human Nav1.7 channel; 25 μg/ml, stimulation only at end, after incubation of antibody)	human Nav1.7 currents under repeated activation (human Nav1.7 channel; 25 μg/ml, voltage step protocol at 0.1 Hz for ~20 minutes)	dose dependence of inhibition of human Nav1.7 currents (human Nav1.7 channel)	dose dependence of inhibition of rat Nav1.7 currents (rat Nav1.7 channels; repeated voltage step protocol, end point)	number of evoked action potentials [2]	ELISA binding to Nav 1.7 peptide (B11.7) (Nav 1.7 peptide B11.7)	ELISA binding to Human domain B loop E1 peptide B11 [3]	ELISA binding to Mouse domain B loop E1 peptide B11 [4]	inhibition of rat Nav1.7 currents (rat Nav1.7 channels; 25 μg/ml)	electrically induced spike frequency of DRG neurons ([2]; normalized to frequency at time 0)
NCC1(CC(=O)O)CCCCC1 [gabapentin]	≤ 50%										
B1		does not produce an inhibition of the Nav1.7 current	reduced in the presence of the antibody (25 μg/ml) but only when repeated activation of the channel at 0.1 Hz is maintained	dose-dependent inhibition	dose-dependent inhibition	significantly reduced	specific binding	binding	binding		
B2				dose-dependent inhibition			specific binding	binding	binding	~26%	reduces
B3						significantly reduced					
